# B1: TDP-43 CTD conserved region (peptide)
# chain: NPAMMAAAQAALQSSWGMMGMLA
# B2: TDP-43 dimer CTD conserved region (peptide)
# chain: NPAMMAAAQAALQSSWGMMGMLA
# Experiments:
# TDP-43 CTD Q343A = test: NMR chemical shift perturbation (15N CSP) as a function of protein concentration; details: pH 6.1, without salt; 90 μM vs 20 μM protein; read off a plot
# TDP-43 CTD L330A = test: as above; details: pH 6.1, without salt; 90 μM vs 20 μM protein; read off a plot
# [1] = target: TDP-43 CTD S→E S305C cross-linked (human) (UniProt Q13148); test: AUC; tetramer-octamer; details: domain or fragment
# [2] = target: TDP-43 CTD S→E S305C cross-linked (human) (UniProt Q13148); test: AUC; dimer-tetramer; details: domain or fragment
# TDP-43 CTD M323A = test: NMR chemical shift perturbation (15N CSP) as a function of protein concentration; details: pH 6.1, without salt; 90 μM vs 20 μM protein; read off a plot
# TDP-43 CTD S317A = test: as above; details: pH 6.1, without salt; 90 μM vs 20 μM protein; read off a plot
# TDP-43 CTD F316A = test: as above; details: pH 6.1, without salt; 90 μM vs 20 μM protein; read off a plot
# TDP-43 CTD M339A = test: as above; details: pH 6.1, without salt; 90 μM vs 20 μM protein; read off a plot
# [3] = target: TDP-43 C-terminal domain, wild type (human); test: AUC; sedimentation velocity, 25 °C, 50,000 rpm, absorbance at 280 nm, solution without salt; WT CTD at 33, 58 and 107 µM; c(s) analysis and global Lamm equation modelling of the 58 and 107 µM data (SEDPHAT), monomer-dimer-tetramer model (steps: dimer to monomers; tetramer to dimers); monomer-tetramer model fits similarly
# [4] = target: TDP-43 CTD S→E S317C cross-linked (human) (UniProt Q13148); test: AUC; dimer-tetramer, isotherm fit (dimer concentration units); details: domain or fragment
# [5] = target: TDP-43 CTD S→E S317C cross-linked (human) (UniProt Q13148); test: AUC; dimer-tetramer, global Lamm equation modeling; details: domain or fragment
# TDP-43 CTD S342A = test: NMR chemical shift perturbation (15N CSP) as a function of protein concentration; details: pH 6.1, without salt; 90 μM vs 20 μM protein; read off a plot
# [6] = target: the molecule itself; test: analytical ultracentrifugation (SEDPHAT)
molecule,measurement,setting,value
"TDP-43 C-terminal domain, wild type Q343A",ratio to parent,TDP-43 CTD Q343A,1.2
"TDP-43 C-terminal domain, wild type L330A",ratio to parent,TDP-43 CTD L330A,0.13
TDP-43 CTD S→E S305C cross-linked (from UniProt Q13148),Kd,[1],4.7 µM
same,Kd,[2],58 µM
"TDP-43 C-terminal domain, wild type M323A",ratio to parent,TDP-43 CTD M323A,0.19
"TDP-43 C-terminal domain, wild type S317A",ratio to parent,TDP-43 CTD S317A,1.2
"TDP-43 C-terminal domain, wild type F316A",ratio to parent,TDP-43 CTD F316A,0.27
"TDP-43 C-terminal domain, wild type M339A",ratio to parent,TDP-43 CTD M339A,0.63
"TDP-43 C-terminal domain, wild type (domain or fragment)","Kd,dim-tet (dimer-tetramer step)",[3],2.7 µM
same,"Kd,mon-dim (monomer-dimer step)",[3],2400 µM
same,ceq (concentration for equal population of monomer and tetramer),[3],250 to 300 µM
same,stoichiometry N,[3],4
TDP-43 CTD S→E S317C cross-linked (from UniProt Q13148),Kd,[4],45 µM
same,Kd,[5],46 µM
"TDP-43 C-terminal domain, wild type S342A",ratio to parent,TDP-43 CTD S342A,1.1
B1,Kd,[6],2400 µM
B2,Kd,[6],2.7 µM

# From article PMC12658102 (2025)
